# Substitutions are numbered along the chain they refer to.
# B1: RBCK1 (natural protein, human (endogenous in HBL1), UniProt Q9BYM8-1 1-510, looked up)
# chain: MDEKTKKAEEMALSLTRAVAGGDEQVAMKCAIWLAEQRVPLSVQLKPEVSPTQDIRLWVSVEDAQMHTVTIWLTVRPDMTVASLKDMVFLDYGFPPVLQQWVIGQRLARDQETLHSHGVRQNGDSAYLYLLSARNTSLNPQELQRERQLRMLEDLGFKDLTLQPRGPLEPGPPKPGVPQEPGRGQPDAVPEPPPVGWQCPGCTFINKPTRPGCEMCCRARPEAYQVPASYQPDEEERARLAGEEEALRQYQQRKQQQQEGNYLQHVQLDQRSLVLNTEPAECPVCYSVLAPGEAVVLRECLHTFCRECLQGTIRNSQEAEVSCPFIDNTYSCSGKLLEREIKALLTPEDYQRFLDLGISIAENRSAFSYHCKTPDCKGWCFFEDDVNEFTCPVCFHVNCLLCKAIHEQMNCKEYQEDLALRAQNDVAARQTTEMLKVMLQQGEAMRCPQCQIVVQKKDGCDWIRCTVCHTEICWVTKGPRWGPGGPGDTSGGCRCRVNGIPCHPSCQNCH
# What was measured:
# [1] = target: T1, myc epitope-tagged RNF31 Q584H (human, UniProt Q96EP0-1 1-1072, Q584H); experiment: co-IP
# T1 sequence (looked up): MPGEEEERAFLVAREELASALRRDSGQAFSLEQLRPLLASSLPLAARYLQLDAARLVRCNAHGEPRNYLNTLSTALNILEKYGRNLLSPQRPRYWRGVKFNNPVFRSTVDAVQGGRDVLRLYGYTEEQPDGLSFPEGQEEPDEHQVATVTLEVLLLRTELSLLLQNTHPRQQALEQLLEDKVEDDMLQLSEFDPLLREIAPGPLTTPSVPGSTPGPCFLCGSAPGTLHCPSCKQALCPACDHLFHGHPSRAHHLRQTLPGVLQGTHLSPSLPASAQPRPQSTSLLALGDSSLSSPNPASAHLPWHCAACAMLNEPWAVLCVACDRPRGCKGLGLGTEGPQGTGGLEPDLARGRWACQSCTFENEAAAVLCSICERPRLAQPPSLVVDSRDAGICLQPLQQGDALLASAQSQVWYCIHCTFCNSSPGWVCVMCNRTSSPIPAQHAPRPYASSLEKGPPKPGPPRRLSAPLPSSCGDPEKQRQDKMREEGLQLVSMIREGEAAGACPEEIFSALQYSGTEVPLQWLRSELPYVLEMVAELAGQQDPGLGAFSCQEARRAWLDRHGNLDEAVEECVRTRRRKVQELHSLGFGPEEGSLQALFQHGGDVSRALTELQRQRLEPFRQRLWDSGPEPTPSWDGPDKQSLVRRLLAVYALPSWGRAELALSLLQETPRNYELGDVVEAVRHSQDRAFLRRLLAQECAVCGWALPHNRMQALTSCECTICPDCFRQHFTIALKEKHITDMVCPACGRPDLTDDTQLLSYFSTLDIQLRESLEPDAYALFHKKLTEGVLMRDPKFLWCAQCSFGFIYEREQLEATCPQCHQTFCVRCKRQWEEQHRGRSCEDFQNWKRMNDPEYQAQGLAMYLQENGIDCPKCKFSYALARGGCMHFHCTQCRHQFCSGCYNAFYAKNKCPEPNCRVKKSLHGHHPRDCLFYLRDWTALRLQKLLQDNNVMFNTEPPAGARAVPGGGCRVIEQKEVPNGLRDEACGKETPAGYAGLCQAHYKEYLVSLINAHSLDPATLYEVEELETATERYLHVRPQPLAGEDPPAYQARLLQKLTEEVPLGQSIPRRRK
# [2] = target: T2, myc epitope-tagged RNF31 Q622L (human, UniProt Q96EP0-1 1-1072, Q622L); experiment: co-IP
# T2 sequence (looked up): T1 sequence (looked up) with H584Q, Q622L
binder,measurement,setting,value
B1,fold co-immunoprecipitation relative to wild type RNF31,[1],1.4 fold
same,fold co-immunoprecipitation relative to wild type RNF31,[2],2.07 fold

# Source: publication PMC3992927 (Cancer discovery, 2014)
